In US20250136702A1 (NONA BIOSCIENCES SUZHOU, published 2025):
Where a chain is given by its changes, count along the chain named. Blank lines part the entries; values can stand above or below the binder they belong to.

Columns and labels:
mouse LIFR-ECD protein = biological target: T1, mouse LIFR-ECD protein (mouse, UniProt P42703 44-828); test: ELISA on plate-coated mouse LIFR-ECD (1 ug/mL), anti-human IgG Fc-HRP, OD450nm
T1 construct: extracellular domain
T1 sequence (looked up): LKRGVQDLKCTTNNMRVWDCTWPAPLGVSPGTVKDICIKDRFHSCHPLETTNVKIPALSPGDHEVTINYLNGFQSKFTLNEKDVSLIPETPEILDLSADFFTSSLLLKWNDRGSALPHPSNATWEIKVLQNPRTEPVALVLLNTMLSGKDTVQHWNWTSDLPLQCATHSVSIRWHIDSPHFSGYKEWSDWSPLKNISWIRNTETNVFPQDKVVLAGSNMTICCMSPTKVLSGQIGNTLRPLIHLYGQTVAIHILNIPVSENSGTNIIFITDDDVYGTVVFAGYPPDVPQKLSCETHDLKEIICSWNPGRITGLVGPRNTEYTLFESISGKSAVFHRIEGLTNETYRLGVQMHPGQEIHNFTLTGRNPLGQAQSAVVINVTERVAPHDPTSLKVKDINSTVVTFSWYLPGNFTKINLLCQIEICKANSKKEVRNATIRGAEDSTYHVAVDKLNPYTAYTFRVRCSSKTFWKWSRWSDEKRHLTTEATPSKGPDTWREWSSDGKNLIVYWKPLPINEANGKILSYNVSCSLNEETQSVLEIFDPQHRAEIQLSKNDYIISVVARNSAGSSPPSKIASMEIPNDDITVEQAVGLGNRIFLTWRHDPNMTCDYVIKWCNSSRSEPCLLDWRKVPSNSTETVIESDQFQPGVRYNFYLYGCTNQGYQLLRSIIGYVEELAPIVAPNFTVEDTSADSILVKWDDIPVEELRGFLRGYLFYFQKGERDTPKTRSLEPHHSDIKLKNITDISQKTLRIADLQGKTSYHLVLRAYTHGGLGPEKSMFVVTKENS
Protocol: The binding ability of the 15 antibodies prepared in examples 1-4 of the present invention to the LIFR-ECD protein was detected based on the ELISA assay method. The binding affinity of different antibodies was determined by comparing their dose response binding curves to LIFR-ECD protein. The specific experimental process is as follows: First, human LIFR-ECD, monkey LIFR-ECD and mouse LIFR-ECD proteins are diluted to a concentration of 1 μg/mL, added to a 96-well plate (100 μL per well) and placed at 4° C. overnight. The 96-well plates were washed three times with PBST solution and then placed at 37° C. for 1 h with the addition of 2% BSA in PBS solution. Antibody seris dilution is prepared and (100 nM, 10-fold-dilution), added to a 96-well plate and incubate at 37° C. for 1 h. After washing three times with PBST solution, add anti-human IgG Fc-HRP secondary antibody (for 5000× dilution) and incubate at 37° C. for 30-60 min. After washing three times with PBST solution, add TMB color development solution for 5-15 minutes, and then add termination solution to ternimate the color development.

[1] = biological target: T2, human LIFR expressed on the surface of 293T cells (human, UniProt P42702 45-1097); test: flow cytometry on HEK293T-huLIFR cells, median fluorescence, span of the fitted curve
T2 construct: whole, on cells; also called HEK293T-huLIFR; huLIFR
T2 sequence (looked up): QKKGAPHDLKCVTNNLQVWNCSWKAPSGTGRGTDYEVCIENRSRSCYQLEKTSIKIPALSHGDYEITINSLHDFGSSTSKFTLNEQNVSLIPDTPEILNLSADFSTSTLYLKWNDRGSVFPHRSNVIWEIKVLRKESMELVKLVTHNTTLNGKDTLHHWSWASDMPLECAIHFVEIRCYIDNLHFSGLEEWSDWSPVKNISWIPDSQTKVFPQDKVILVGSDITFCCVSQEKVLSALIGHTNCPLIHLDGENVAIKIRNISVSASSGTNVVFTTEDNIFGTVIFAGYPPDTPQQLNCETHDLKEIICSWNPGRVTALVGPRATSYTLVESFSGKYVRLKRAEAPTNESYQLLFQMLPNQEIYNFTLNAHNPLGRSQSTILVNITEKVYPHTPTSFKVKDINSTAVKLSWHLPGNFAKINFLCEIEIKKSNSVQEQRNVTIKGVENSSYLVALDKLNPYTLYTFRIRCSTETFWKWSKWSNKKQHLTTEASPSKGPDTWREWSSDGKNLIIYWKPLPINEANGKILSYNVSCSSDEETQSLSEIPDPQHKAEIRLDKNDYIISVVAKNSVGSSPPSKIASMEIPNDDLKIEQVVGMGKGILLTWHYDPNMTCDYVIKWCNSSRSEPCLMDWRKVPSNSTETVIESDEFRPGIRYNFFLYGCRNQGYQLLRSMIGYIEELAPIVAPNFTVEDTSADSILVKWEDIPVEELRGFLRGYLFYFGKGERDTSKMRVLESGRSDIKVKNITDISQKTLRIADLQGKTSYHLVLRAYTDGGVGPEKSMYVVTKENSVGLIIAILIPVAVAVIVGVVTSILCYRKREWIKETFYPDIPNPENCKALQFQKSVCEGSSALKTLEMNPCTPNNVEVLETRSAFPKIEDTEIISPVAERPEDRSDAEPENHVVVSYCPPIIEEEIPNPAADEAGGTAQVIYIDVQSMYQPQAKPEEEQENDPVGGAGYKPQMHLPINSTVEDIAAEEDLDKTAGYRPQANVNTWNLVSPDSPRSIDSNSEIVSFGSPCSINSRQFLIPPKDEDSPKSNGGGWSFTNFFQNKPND

[2] = biological target: T3, human LIFR/gp130 heterodimer expressed on the surface of 293T cells (human, UniProt P42702 45-1097; P40189 23-918); test: flow cytometry on HEK293T-huLIFR/gp130 cells, median fluorescence, span of the fitted curve
T3 construct: whole, on cells; also called HEK293T-huLIFR/gp130; huLIFR/gp130
T3 sequence (P40189 23-918, one chain of several): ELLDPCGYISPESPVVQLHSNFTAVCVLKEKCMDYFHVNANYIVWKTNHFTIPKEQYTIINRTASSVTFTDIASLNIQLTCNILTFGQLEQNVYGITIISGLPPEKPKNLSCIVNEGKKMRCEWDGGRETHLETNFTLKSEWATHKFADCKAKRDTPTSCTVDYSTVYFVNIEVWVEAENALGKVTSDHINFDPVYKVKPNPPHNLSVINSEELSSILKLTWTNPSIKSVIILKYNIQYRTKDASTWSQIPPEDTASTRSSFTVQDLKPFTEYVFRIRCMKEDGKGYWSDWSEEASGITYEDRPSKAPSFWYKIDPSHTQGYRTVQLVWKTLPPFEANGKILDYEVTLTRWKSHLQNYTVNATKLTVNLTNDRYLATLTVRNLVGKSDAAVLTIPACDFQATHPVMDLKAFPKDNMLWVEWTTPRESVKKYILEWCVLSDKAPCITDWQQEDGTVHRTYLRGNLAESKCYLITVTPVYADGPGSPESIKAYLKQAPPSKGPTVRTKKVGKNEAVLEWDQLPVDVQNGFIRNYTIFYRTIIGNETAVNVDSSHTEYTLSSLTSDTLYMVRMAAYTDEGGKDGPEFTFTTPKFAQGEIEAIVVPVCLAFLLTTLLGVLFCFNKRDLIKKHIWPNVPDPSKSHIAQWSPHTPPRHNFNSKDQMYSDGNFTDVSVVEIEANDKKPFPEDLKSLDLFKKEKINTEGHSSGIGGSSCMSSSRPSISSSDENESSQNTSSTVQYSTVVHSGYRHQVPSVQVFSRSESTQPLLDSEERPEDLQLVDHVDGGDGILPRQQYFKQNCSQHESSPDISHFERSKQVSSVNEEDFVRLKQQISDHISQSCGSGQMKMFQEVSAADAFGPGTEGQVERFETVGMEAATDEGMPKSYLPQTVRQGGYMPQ

- Span [1]: 20100
- binding result (mouse LIFR-ECD protein): no binding (tested: 100 nM)
- Span [2]: 7210
B2: PR301152 (antibody, IgG1, V domains shown)
VH: QVQLVESGGGVVQPGRSLRLSCAASGFTFSSYGMDWVRQAPGKGLEWVAVIWYDGSNKYYADSVKGRFTISRDNSKNTLYLQMNSLRAEDTAVYYCARELWFGELLSPFDFWGQGTLVTVSS
VL: KIVLTQSPGTLSLSPGGRATLSCRASQSISSSYLAWYQQKPGQAPRLLIYAASNRATGIPDRFSGSGSGTDFTLTISRLEPEDFAVYYCQQYGSSPFTFGPGIKVDIKR

- Span [1]: 19400
- binding result (mouse LIFR-ECD protein): no binding (tested: 100 nM)
- Span [2]: 6950
B3: PR301168 (antibody, IgG1, V domains shown)
VH: B2 VH with Y59F, K65R, K76Q, F109L
VL: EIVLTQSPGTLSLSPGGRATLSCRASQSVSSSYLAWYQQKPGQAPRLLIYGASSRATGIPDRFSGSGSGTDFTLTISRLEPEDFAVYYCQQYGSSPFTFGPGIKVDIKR
notes: also called PR3001168

- binding result (mouse LIFR-ECD protein): no binding (tested: 100 nM)
B4: PR301153 (antibody, IgG1, V domains shown)
VH: QGQLVESGGGVVQPGRSLRLSCAASGFTFSSYGMHWVRQPPGKGLEWVAVIWFDGSNKYYADSVKGRFTISRDNSKNTVYLQMDSLRDEDTAVYYCARGQLVGDYWGQGTLVTVSS
VL: not shown

- Span [1]: 15900
- Span [2]: 5800
B7: PR301211 (antibody, human IgG1, kappa, V domains shown)
VH: QVQLVESGGGVVQPGRSLRLSCAASGFTFSSYGMHWVRQAPGKGLEWVAVIWFDGSLKYYADSVKGRFAISRDNSKNTLYLQMNSLRAEDTAIFYCARGQLVQDLWGRGTLVTVSS
VL: DIQMTQSPSTLSASVGDRVTITCRASQSISSWLAWYQQKPGKAPNLLMYKASNLESGVPSRFSGSGSGTEFTLTITSLQPDDFASYYCQQYKSNPLTFGGGTKVEIKR

- Span [1]: 19800
- binding result (mouse LIFR-ECD protein): no binding (tested: 100 nM)
- Span [2]: 6880
B10: PR300516 (antibody, human IgG1, kappa, V domains shown)
VH: QVQLVESGGGVVQPGRSLRLSCAASGFTFSSYGMHWVRQAPGKGLEWVAVIWYDGNNKYYADSVKGRFTISRDNSKNTLYLQMNSLRAEDTAVYYCARDGESSMVRGLLNWFDPWGQGTLVTVSS
VL: not shown

- Span [2]: 55.6
B12: PR301127 (antibody, human IgG1, kappa, V domains shown)
VH: EVQLLQSGGGLVQPGGSLRLSCAASGFTFSNYAMTWVRQAPGKGLEWVSTISGSGAFTYYADAVKGRFTISRVNSKNSLDLQMNSLRAEDTAVYYCAKGGILTGFDNWGQGTLVTVSS
VL: DIQMTQSPSTLSASVGDRVTITCRASQSISSWLAWYQQKPGKAPKLLIYKASSLESGVPSRFSGSGSGTEFSFTISSLQPDDFATYYCQQYKSFSPGGLTFGGGTKVEIKR

Continued, binder first:

B1: PR301176 (antibody, IgG1, V domains shown)
VH: B2 VH with Y59F, K65R, K76Q
VL: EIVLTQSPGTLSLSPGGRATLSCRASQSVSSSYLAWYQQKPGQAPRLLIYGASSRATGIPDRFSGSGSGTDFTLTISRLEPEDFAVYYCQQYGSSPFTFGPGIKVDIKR
- binding result (mouse LIFR-ECD protein): no binding (tested: 100 nM)

B5: PR301215 (antibody, human IgG1, kappa, V domains shown)
VH: B7 VH with L57I, A69T, F94Y, L105F
VL: B7 VL
- binding result (mouse LIFR-ECD protein): no binding (tested: 100 nM)

B6: PR301218 (antibody, human IgG1, kappa, V domains shown)
VH: B7 VH with L57V, A69T, F94Y, L105F
VL: B7 VL
- binding result (mouse LIFR-ECD protein): no binding (tested: 100 nM)

B8: PR301196 (antibody, human IgG1, kappa, V domains shown)
VH: B7 VH with H35N, L57I, A69T, F94Y, L105F
VL: B7 VL with S56N, P59S, S85T
- binding result (mouse LIFR-ECD protein): no binding (tested: 100 nM)

B9: PR301195 (antibody, human IgG1, kappa, V domains shown)
VH: B7 VH with H35N, L57I, A69T, F94Y, L105F
VL: B7 VL
- binding result (mouse LIFR-ECD protein): no binding (tested: 100 nM)

B11: PR301177 (antibody, human IgG1, kappa, V domains shown)
VH: QVQLVESGGGVVQPGRSLRLSCVASGFTFSSYGMNWVRQAPGKGLDWVTVIWFDGSNKYYADSVKGRFTISRDNSKNTLYLQMNSLRAEDTAMYYCARGERTLDLWGQGTLVTVSS
VL: B12 VL
- binding result (mouse LIFR-ECD protein): no binding (tested: 100 nM)
